These results are taken from US12415992B2, “Dioxygenase mutants and use thereof in synthesizing (2S,3R)-3-hydroxypipecolic acid” (Jiangnan University, priority 2023, dated 2025).

Usually kcat/Km stands for the second-order rate constant that governs catalysis at low substrate concentration. A word on the Km: it is the concentration of substrate that gives half-maximal velocity. The Vmax is the rate approached at saturating substrate. One may read the kcat as the number of substrate molecules converted per active site and unit of time at saturation.

Series [1] has as its target T1, Streptomyces sp. strain TH1 L-proline-3-hydroxylase (cis-P3H, SEQ ID NO. 1) mutant R97M (Streptomyces sp., UniProt P96010, R97M).
T1 sequence (P96010 1-290 R97M): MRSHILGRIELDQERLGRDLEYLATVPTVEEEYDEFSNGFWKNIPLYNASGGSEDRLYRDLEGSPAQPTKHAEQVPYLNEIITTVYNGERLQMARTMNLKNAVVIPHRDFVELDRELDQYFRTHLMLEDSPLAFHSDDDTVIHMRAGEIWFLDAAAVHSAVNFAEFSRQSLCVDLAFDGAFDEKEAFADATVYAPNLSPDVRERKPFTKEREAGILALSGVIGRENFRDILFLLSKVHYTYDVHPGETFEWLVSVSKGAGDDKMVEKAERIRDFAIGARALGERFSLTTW
In words: Kinetic parameters of L-proline-3-hydroxylase mutant R97M (Michaelis-Menten fit). It is filed as biochemical. On the procedure:
[…]
(§1) The reaction was terminated by boiling, and the sample after the termination of reaction was analyzed by high-performance liquid chromatography (HPLC). […]
(§2) Kinetic parameters (Km and Vmax) were determined using a reaction mixture with a final volume of 250 μL. […]

Series [2] addresses T2, Streptomyces sp. strain TH1 L-proline-3-hydroxylase (cis-P3H), wild type (WT), SEQ ID NO. 1 (Streptomyces sp., UniProt P96010).
T2 sequence (P96010 1-290): T1 sequence (P96010 1-290 R97M) with M97R
In words: Kinetic parameters of wild-type L-proline-3-hydroxylase (Michaelis-Menten fit). The class given is biochemical. The following applies: WT pure enzyme; L-pipecolic acid 0.30 to 25 mM, 2-OG 0.30 to 40 mM; pH 6.5, 17° C.; three measurements. On the procedure: […]
as §1, §2

Substrate in series [3]: O=C(O)CCC(=O)C(=O)O
Kind of series: purified protein, by the assay type. The following applies: L-pipecolic acid 0.30 to 25 mM, 2-OG 0.30 to 40 mM, pH 6.5, 17° C., three measurements.

Substrate in series [4]: O=C(O)[C@@H]1CCCCN1
In words: Kinetic parameters of L-proline-3-hydroxylase mutant R97M (Michaelis-Menten fit). It is filed as biochemical, Streptomyces sp. strain TH1. The following applies: other: R97M pure enzyme, L-pipecolic acid 0.30 to 25 mM, 2-OG 0.30 to 40 mM, pH 6.5, 17° C., three measurements.
Text: (§3) The present disclosure further provides a method for constructing the L-proline-3-hydroxylase mutant above, the method includes the following steps: • (1) according to sequence information of the L-proline-3-hydroxylase from Streptomyces sp. strain TH1 disclosed in the NCBI database, performing codon optimization based on codon preference rules of Escherichia coli to obtain an optimized gene of L-proline-3-hydroxylase; connecting the optimized gene of L-proline-3-hydroxylase into an expression vector pET28a to construct an L-proline-3-hydroxylase expression vector; • (2) using genes (involved in site-directed saturation mutagenesis) synthesized by GENCEFE Biotech to prepare an expression vector containing the L-proline-3-hydroxylase mutant; • (3) transforming the above vectors into BL21 engineering bacteria by chemical transformation to express each enzyme protein; culturing the strain in a test tube at 37° C. shaker overnight, transferring the same to an LB liquid culture medium containing 50 mg·L^−1 kanamycin at a 2% inoculation rate, culturing at 37° C. for 2-2.5 hours, and then adding IPTG with a concentration of 0.10 mM to adjust a temperature to 17° C. and culturing for 16 hours; • (4) centrifuging at 8000 r·min^−1 for 5 minutes and collecting bacterial pellets, disrupting cells through an ultrasonic disruption method, centrifuging in a refrigerated centrifuge at 12000 r·min^−1 for 30 minutes to collect supernatant, directly using the supernatant for crude enzyme reaction to explore changes in molar yield under crude enzyme conditions; or purifying the supernatant with a nickel column, and enzymatic properties such as enzyme activity and kinetic parameters of the pure L-proline-3-hydroxylase can be determined. Specifically, the enzyme activity is detected using an Fmoc-Cl pre-column derivatization method, and analyzed by high-performance liquid chromatography (HPLC). The kinetic parameters (Km and Vmax) are measured in a standard enzyme activity assay system, with three separate measurements. Data are fitted to a Michaelis-Menten model using GraphPad Prism, and a protein concentration is kept at 0.50 mg·mL-1 during the measurements.
(§4) Specifically, the reaction under crude enzyme conditions was performed for 12 hours, the reaction under pure enzyme conditions was performed for 15 minutes, and a final protein concentration for the reaction under pure enzyme conditions was 0.5 mg·mL^−1.
as §1, §2

Substrate in series [5]: O=C(O)[C@@H]1CCCCN1
Kind of series: Kinetic parameters of wild-type L-proline-3-hydroxylase (Michaelis-Menten fit). It is filed as biochemical, Streptomyces sp. strain TH1. The following applies: other: WT pure enzyme, L-pipecolic acid 0.30 to 25 mM, 2-OG 0.30 to 40 mM, pH 6.5, 17° C., three measurements.
Text: as §3, §4, §1, §2

Numbering of substitutions follows the chain as printed. Names may count otherwise.

For the molecule `O=C(O)[C@@H]1CCCCN1` [L-Pip, L-pipecolic acid], the kcat/Km turned out to be 34.8 M⁻¹ s⁻¹ in series [1] (R97M pure enzyme, L-pipecolic acid 0.30 to 25 mM, 2-OG 0.30 to 40 mM, pH 6.5, 17° C., three measurements) and 19 M⁻¹ s⁻¹ in series [2]. Further, the “catalytic efficiency kcat/Km of R97M relative to WT” value in series [1] (ratio R97M / WT) was determined as 1.83 times.

B1: Streptomyces sp. strain TH1 L-proline-3-hydroxylase (cis-P3H, SEQ ID NO. 1) mutant R97M (Streptomyces sp.; R97M) (protein)
chain: T1 sequence (P96010 1-290 R97M)
B1: in series [3] (other: R97M pure enzyme), the Km was 1.46 ± 0.01 mM, the Vmax is 139 µM/min, the kcat stood at 0.151 s⁻¹ and the kcat/Km amounted to 104 M⁻¹ s⁻¹. For the same molecule, in series [4], the Michaelis-Menten constant (Km) was determined as 6.83 ± 0.32 mM, the Vmax amounted to 212 µM/min, the kcat was 0.23 ± 0.00367 s⁻¹ and the kcat/Km worked out at 34.8 ± 1 M⁻¹ s⁻¹.

B2: Streptomyces sp. strain TH1 L-proline-3-hydroxylase (cis-P3H), wild type (WT), SEQ ID NO. 1 (Streptomyces sp.) (protein)
chain: T1 sequence (P96010 1-290 R97M) with M97R
Consider B2, for which, in series [5], the Km amounted to 10.27 ± 0.40 mM, the Vmax came to 201 µM/min, the kcat amounted to 0.2038 ± 0.002 s⁻¹ and the kcat/Km was 19 ± 0.5 M⁻¹ s⁻¹. In series [3] (other: WT pure enzyme), the Km worked out at 0.76 ± 0.02 mM, the Vmax worked out at 101 µM/min, the kcat is 0.102 s⁻¹ and the kcat/Km came to 134 M⁻¹ s⁻¹.
